According to the DeepSol protein solubility set:

assay: soluble on expression in E. coli; label from the status in PepcDB or PDB records

| Sequence | soluble on expression in E. coli |
| --- | --- |
| MGSDKIHHHHHHMRKLGWKELDIILVTGDAYVDHPSFGVAFIGHYLVSHGFKVGIIAQPDWRTEKDITRLGRPRLFFGVTAGNVDSMVANYTASKKKRKTDDYTPGGIGGKRPDRATIVYTNLIKRFFPEVPVVLGGLEASLRRFAHYDWWSDRVRKSVLVDSKADLLVYGMGEKAVLGIAQILSRTGDIEKCKSIRGVVWWASQKPEEGIELPSYDEISENPEKYAEALKLQTWYTDPYKNIPIYQRQDTRYVVQNPPQPPLSQEELDRLYLLPFEREVHPFYAKMGKVKAIETVKFSITAVRGCFGNCSFCALTQHQTTHVSYRSKDSILEEVRILTKKKDFKGTITDVGGPTANLYGSGCSIRETKGQCQKFCLYPIVCKVVRPNHDEFISLLESIRQIPGVRNVFVSSGIRHDFVFAEKDPDVFIRELVKYTPGQLKLAPEHAHPKVLSLMRKPPVELFLEFKKRFETLAKKMGKRKYVIGYFIVGHPGEGWRENNYLRDFILKHLGYFPQQIQIFTPTPGTVSTAMYYSGVDPFTGEKVHVERSLKVRNKMKENVLFKKKGREKR | not soluble |
| MSLKLTIGVSYPTANSPFWNAYTRFIDEGSHQLGVYINAVSAEEDEQKQLSDVETLINQGIDGLIVTPQSTSIAPTLLRIATQANIPVVVVDRYPGYAPGQNKNADYVAFLGPNNEKAGSGIAEALMAGGGSKFLALGGMPGNSVAQGRKAGLESALTAVGHRLVQFQYAGDSEDKGLAAAENMLQAHPAGDANAIWCFNDKLCQGAIKAVYNANREKEFIFGGMDLTPQAIAAIENGLYTVSLGAHWLEGGFGLAILYRKIHGQDPAERMVKLDLLKVDKSNVAKFKARYEGHHHHHH | not soluble |
| MEISNRLKSISEVMDRCEIAADIGTDHAYLPIYLIKNNLCKRFIASDVNAGPLKKAINNINKYKLEDKIECRLGSGLNVLKLEEVDVVVIAGMGGNLIRDIIEERLDIFKKLKYAVLQPVQNPEILREYLIKRGFNIIEEQLCIDESKYYEIIKVCYDSKIEDKDDVYYEIGDKLIDMKHPLLKEYINYKIRKYDKIYKNISEESLNALSRKNELSIKIRKLKELLSCL | not soluble |
| VKSNKGFEAIAWDPLRQRLIIGEERPPKLYTWNTDGRSPLKGEKQPLPSDELDLRNLSALGVDPRTGHLLVLSADSNMLLELDEQGQQVSFMTLLGGFNGLE | not soluble |
| MAHHHHHHMPPPNTLQRGSEWVAQCMRDIKAAKLQQTVRPYSNGTPAGEALPVRTIVATSRIHRGEHLGTVKRDSIMTGERASQLLRRACRGGPSQTDVTAATGLQPLAAQRFDDLVSRISSLPSALSVPPHLLLSRDALLVTVALYLTRSPLNAGVLPAESPLRAWADALPRRPPPMGALLRRSFLSHDDVEPLPRRLRLGQRTKEVAPGEDVAAASTELMVQAVEQGELELADLRRPEMETALTPTVLTNYFKGRMSALTQRQRQSQRARGGVAEAEEGALHLFMTWERQLQTHFVDALLPVLLLPSCGSCASNLEAVQDSAAWLGEESALRWAHFMTRSRAVNLNWRHPGPPQLSIVPLVDMLNHTSRANANVVYQREDSGDVCVTASRTIEAGEELVLRYNHIGQRGCLFGDLPRPSKPTAEHERGRLSGKAAAVADEVHRIEKRQYWELYACDEDEEAVQHTGHTPSTSFTASTRCGTFDPAPPAAVGQQEMEQEVQWLWRFGFLRSNEEKNREAALLWSRGLRSRIAHLTDVRRKGRPGEFVLGVPEGLQHLREQREQLERNRYNNKKVFPPQQL | not soluble |
| MAHHHHHHMGGYFSKDLEECLRNEKRNLNRSIRELEREIFKLTNEQSKIEKNIKINAKRNGDTSTVRTLARDYISIKKTIAKYNKLKSHLFSMKVKLQSVKSSEQLGRSLTEINRVIKRVNGYIKLTSLNKSINDFHKENNEVSLKEDMLDDLFEAFDYDSQMVAEEEELVTKVLEGMGIQMNAKLEDIPSPGELPKTQVDHLGVSDLEARINNLRLGKS | soluble |
| MRGWHHHHHHGIRMRARYPSVVDVYSVEQFRNIMSEDILTVAWFTAVWCGPCKTIERPMEKIAYEFPTVKFAKVDADNNSEIVSKCRVLQLPTFIIARSGKMLGHVIGANPGMLRQKLRDIIKDN | soluble |
| MKRTTLVMLLLTLCGFSSASFALSESEAEDLADLTAVFVYLKNDCGYQELPNNEIKRAIVYFAQQNRWDLHNYDSFNMKALGEDSYRDLRGIALPTPVKCKSLARDSLSLLAYAN | not soluble |
| MKASYLETLDRIKDEHAEMSKHVNQQRSDIEKVALEKENMNRSYMTYAEVSNTLRSDLRKAEEINKRLQEFIMQSLAPQLSQDNQANCLAALEAFKTASPRENGNGAPALPPGFPPGAAGMLGMMPNMPFGMSPAMSQLFNQFASPHVNGGDGAGGSSGGASEAKKAKLEDPDDGELEIDVTNDDHPSTASNGGAANKNGRDSTNSVASSGASTPSIASNSRARQQQQPLAGLQGLEQMNFLAGFNPNLLRQASAAGGFNFLNDPHAQARLAAAIGQIGSRPAYSFKIVDGGVPTPTSFPPDAQKGPGIPTGLKKKMELNHGEVVCAATISRDNSRVYTGGKGCVKIWDVKESDISGATVVNRPPIASLDCLKENYIRSCKLFEDGNTLLIGGEASTVALWDLTTETKTLDLETDSQACYALAMSPDEKLLFACLADGNILIYDIHNKVKVGTLPGHQDGASCLDLSKDGTKLWSGGLDNSVRCWDLAQRKEVAKHDFASQVFSLGCCPNDEWVAVGMENNYVEVLSTTGKEKYQLTQHESCVLSLKFAHSGKFFISTGKDNALNAWRTPYGASLFQLKENSSVLSCDISFDDSLIVTGSGEKKATLYAVEY | not soluble |
| MGSDKIHHHHHHMSTRESRHPVVSRSQWLAARYYLWLHEKAFTHHRDALTAARRALPWVKVEQDYRFFGPNGALSLADLFAGRSQLLLYHFMFAEGWSEGCPGCSFLADHYDGANLHLAHHDVSLVAVSRAPYAEFQAFRQRMGWQFPWYSSHGSDFNEDFGVSVGSEGQRQYNYEPYEGNESELPGLSAFFREGDGSVYHTYSTYARGLDILVNTYNFLDIAPLGRNEGGTMDWVRHHDRYEGQPDKPHCCHR | not soluble |
| MAHHHHHHMADAADTLLLSLEVEAAAARNAELSQTIEMLQDEVLRLRRANASLLACDARHCPKVSLQPVETPSATADVSRDESSAAADAREVFVILDDLLFEMADIRSRIILDERVDLTPRAFDSEATVAAHARRCLEEARKLKEAFVVKQHSTAAQVSELRRALGEQAEANQKQTAASALQCAMLERKYDELKRRYDEAVSRQDELVLDGVIQSPSQMLPRS | soluble |
| MSVIAITGSASGIGAALKELLARAGHTVIGIDRGQADIEADLSTPGGRETAVAAVLDRCGGVLDGLVCCAGVGVTAANSGLVVAVNYFGVSALLDGLAEALSRGQQPAAVIVGSIAATQPGAAELPMVEAMLAGDEARAIELAEQQGQTHLAYAGSKYAVTCLARRNVVDWAGRGVRLNVVAPGAVETPLLQASKADPRYGESTRRFVAPLGRGSEPREVAEAIAFLLGPQASFIHGSVLFVDGGMDALMRAKTF | soluble |
| MSLDGKVAVLTGTKKIEVKKLPVPEINDDEMLVKVEGCGVCGTDVFEYKSDPFNYIPVNLGHEGTGEIVKMGKNVKNDWTGKTLKIGDKIVCGPAANGDIYGLMGGEKHYFNGWLANYMVINPNSVVFNVSDMPLDLRILIEPAAVSCHAVAKSKEIYTFKHSSSVVVQGVGPIGLMVIAQMKTLGVRHIIAVDGNASRLELAKKIGATATVNIDDGDSVAAVKELTDGKGANFVFQCTGSTKGASTAWKFLTDHGGICEVGFFVDNGEATYNPHFDVCMPETKITGSWAYVPEDWVEATEFLRETKDEGLDMTQLITNVYPLDQMNEAMAKNMSGTGVKIVYKNNEGHHHHHH | soluble |
| MKTRESSVGLKFRKFNRFYTNVLGFLNEHIYDSPFSLTETRILFEIYNTPNCTAKALQDKLGLDRGYVSRIVKQFEKEDLIYKQRSKDDARHHYIFVTETGKTIYKKLEEKANEQVELMLKVINQKEQHKLAEAMAEIEAILSQSLSARASEISIRDYFLSEDLQLLIEKQRQFYAEAHGWDDTFLAYLQETFDADIEKIWIAESGGKFAGSVGLVKHDEKTVQLRWFLVDADFRGRGLGTQLLEHLVAYCQDMKFDRIFLWTVSTMAEARPLYKKFGFRISEVKQEAPLWGQQLTEERWDLELS | soluble |
| MGSDKIHHHHHHMLPKWDNSYSVHNAKIDEQHKKLFKLAAKVEVVSDRSVSKNEVKELLAEFFNYMKDHFNDEEKYMQLIGYPNLEEHRKIHKEIIQTMINLIKDIKSTNDLKEKLYIVAKKWLLEHILYEDMKVEKWRSSSLSTDDGGDVSFEAAEDEDNEHPQFYLYTCNCPGKIHDVPYSIHQKIELQGRKFTCKTCKQAIKFYKKYS | not soluble |
| MQPEFWNDKRPAGVPDSLDFAAYRSVVEVFERSCKKFADRPAFSNLGVTLSYAELDRLSAAFAAYLQKQTDLQPGDRIAVQMPNVLQYPIAVFGALRAGLVVVNTNPLYTAREMRHQFKDAGVRALVYLNVFGKLVEEVLPDTRIEYLIEARMGDLLPALKGWLVNSVVKSVKKMVPDYRLPQALPFRQALKQGQGHALQPVRVGLEDVAVLQYTGGTTGVSKGAMLTHGNLVANMLQVHAQLSQLGKDGLPLMKEAQEVMIAPLPLYHIYAFTANCMCMMVSGNHNVLITNPRDIPGFVKELKKWRFSALLGLNTLFVALMEHPGFKDVDFSNLKLTNSGGTALVSATAERWKGVTGCTVVEGYGLTECSPVVTTNPYGEQARLGTVGIPVVGTALKVIDEQGNELPVGERGELCVKGPQVMKGYWQRPEATEEILDAEGWLKTGDIAVIDEDGFVRIVDRKKDLILVSGFNVYPNEIEDVVMAHPKVASCAAVGIPDEKSGEAVKLFVVARDPSLSVEELKAYCKENLTGYKIPRQIVLKDALPMTPVGKILR | not soluble |
| IVGGYTCEENSLPYQVSLNSGSHFCGGSLISEQWVVSAAHCYKTRIQVRLGEHNIKVLEGNEQFINAAKIIRHPKYNRDTLDNDIMLIKLSSPAVINARVSTISLPTAPPAAGTECLISGWGNTLSFGADYPDELKCLDAPVLTQAECKASYPGKITNSMFCVGFLEGGKDSCQRDAGGPVVCNGQLQGVVSWGHGCAWKNRPGVYTKVYNYVDWIKDTIAANS | soluble |
| MSLSSWVSESSTETDKYGKSSEGKLYGKSRLSAHPGGIFEPVPYMTSAISLFEYIRERFGYGIEILHDVHERISPIQGVWFAKQVEKYRLFFLEDLFSPEDQHYFEMVRQQCATPIAMGELYVSPNDVIPMMKNKLIDFIRIHISDIGGITPARKIATFGELMGIKTAWHGPGDTSPVGHAANLALNLNSQNFGIQEAAIFGENSKEVFPGCPELRDGMMWSNGKPGLGIDINEELAKKFPFKERVWGGAWEGHHHHHH | not soluble |
| MMKTMRIAAIPGDGIGKEVLPEGIRVLQAAAERWGFALSFEQMEWASCEYYSHHGKMMPDDWHEQLSRFDAIYFGAVGWPDTVPDHISLWGSLLKFRREFDQYVNLRPVRLFPGVPCPLAGKQPGDIDFYVVRENTEGEYSSLGGRVNEGTEHEVVIQESVFTRRGVDRILRYAFELAQSRPRKTLTSATKSNGLAISMPYWDERVEAMAENYPEIRWDKQHIDILCARFVMQPERFDVVVASNLFGDILSDLGPACTGTIGIAPSANLNPERTFPSLFEPVHGSAPDIYGKNIANPIATIWAGAMMLDFLGNGDERFQQAHNGILAAIEEVIAHGPKTPDMKGNATTPQVADAICKIILR | soluble |
| MAVRVAINGFGRIGRNILRAIVESGRTDIQVVAINDLGPVETNAHLLRYDSVHGRFPKEVEVAGDTIDVGYGPIKVHAVRNPAELPWKEENVDIALECTGIFTSRDKAALHLEAGAKRVIVSAPADGADLTVVYGVNNDKLTKDHLVISNASCTTNCLAPVAQVLNDTIGIEKGFMTTIHSYTGDQPTLDTMHKDLYRARAAALSMIPTSTGAAKAVGLVLPELKGKLDGVAIRVPTPNVSVVDLTFIAKRETTVEEVNNAIREAANGRLKGILGYTDEKLVSHDFNHDSHSSVFHTDQTKVMDGTMVRILSWYDNEWGFSSRMSDTAVALGKLI | soluble |
